Laboratory results from patent publication US20220146528A1 (NORDIC BIOSCIENCE A S, published 2022).
No end group written: not given here.

T1: biotinylated synthetic peptide GIATKGLNGP-k(Biotin) (human, not fully specified (C-terminus); also: lowercase k not explained)
T1 construct: Captured on streptavidin-coated microplates; also called biotinylated peptide; coater peptide
T1 peptide: H-GIATKGLNGP

T2: elongation of the selection peptide AGIATKGLNGP (human)
T2 construct: Synthetic peptide: the selection peptide with one alanine added at the N-terminus; also called elongated peptide; N-extended elongated version
T2 peptide: AGIATKGLNGP

T3: truncation of the selection peptide IATKGLNGP (human)
T3 construct: Synthetic peptide: the selection peptide without its N-terminal glycine; also called truncated peptide; N-truncated shortened version
T3 peptide: IATKGLNGP

B1: selection peptide GIATKGLNGP (peptide)
peptide: H-GIATKGLNGP
B2: monoclonal antibody NB117-2F4 (antibody, mouse IgG2b, kappa, V domains shown)
VH: EVQLQESGPSLVKPSQTLSLTCSVTGDSITSGFWSWIRKFPGNKLEFMGYIKYSGDTYFNPSLKSRISITRDTSKNQYYLQLNSVTPEDTATYYCSDMDYWGQGTSVTVSS
VL: DVVMTQTPRSLPVSLGDQASISCRSSQSLVHNNGNTYLHWYLQMPGQSPKLLIYKVSNRFSGVPDRFSGSGSGTDFTLKISRVEAEDLGVYFCSQITHVPWTFGGGTKLEIKR
notes: also called mAb

Legend:
[1] = molecular target: B2; assay: competitive ELISA (Col10neo): peptide standard competes with the coated …-k(Biotin) for 2F4
Protocol: (§1) A purified monoclonal antibody was first tested for peptide-binding specificity by three synthetic peptides, selection peptide ([…]; SEQ ID NO: 1), elongation of the selection peptide ([…]; SEQ ID NO: 3) and truncation of the selection peptide ([…]; SEQ ID NO: 4), and then used in a competitive immunoassay. After optimization with buffer, temperature, incubation time and concentrations for key reagents, the final protocol for detection of ⁴⁷⁹GIATKG (SEQ ID NO: 2) assay was developed as follows: a 96-well streptavidin pre-coated micro plate was coated with 1 ng/ml biotinylated peptide, […]-k(Biotin) (SEQ ID NO: 5) dissolved in 50 mM PBS-BTB buffer (phosphate-buffered saline with bovine serum albumin and Tween-20, pH7.4) for 30 min at 20° C. Then, the plate was washed 5 times by standard wash buffer (20 mM Tris, 50 mM NaCl, pH 7.2). […] The colorimetric reaction was stopped by adding 100 μL stopping solution (1% H₂SO₄) and measured at 450 nm with 650 nm as the reference.
The inter- and intra-plate variation were determined by 10 independent runs of quality control panel (three human sera and two peptide standard) in duplicate. The lower limit of detection (LLOD) was calculated as 3SD of the mean value of 21 zero standard. […] Percent recovery was calculated as the measured concentration divided by the expected concentration corrected for dilution.

[2] = molecular target: T1, biotinylated synthetic peptide …; assay: competitive ELISA, biotinylated peptide on streptavidin plate (FIG. 1 legend)
Protocol: as §1, with “7.2). 20 μL of the peptide standards, kit controls or samples were added to appropriate wells, followed by 100 μL of 23 ng/ml monoclonal antibody in 50 mM PBS-BTB buffer containing 5% Osteocalcin EIA Puf-Liq (Roche diagnostics, Germany), and incubated overnight (20±1 hr) at 4° C. After 5 times wash, 100 μL of goat anti-mouse secondary antibody (115-035-003, Jackson ImmunoResearch) was added and incubated for 1 hr at 20° C.” for “7.2).”

[3] = molecular target: T2, elongation of the selection peptide …; assay: competitive ELISA, displacement of 2F4 from the coated biotinylated peptide
Protocol: (§2) A purified monoclonal antibody was first tested for peptide-binding specificity by three synthetic peptides, selection peptide ([…]; SEQ ID NO: 1), elongation of the selection peptide ([…]; SEQ ID NO: 3) and truncation of the selection peptide ([…]; SEQ ID NO: 4), and then used in a competitive immunoassay. After optimization with buffer, temperature, incubation time and concentrations for key reagents, the final protocol for detection of ⁴⁷⁹GIATKG (SEQ ID NO: 2) assay was developed as follows: a 96-well streptavidin pre-coated micro plate was coated with 1 ng/ml biotinylated peptide, […]-k(Biotin) (SEQ ID NO: 5) dissolved in 50 mM PBS-BTB buffer (phosphate-buffered saline with bovine serum albumin and Tween-20, pH7.4) for 30 min at 20° C. Then, the plate was washed 5 times by standard wash buffer (20 mM Tris, 50 mM NaCl, pH 7.2). 20 μL of the peptide standards, kit controls or samples were added to appropriate wells, followed by 100 μL of 23 ng/ml monoclonal antibody in 50 mM PBS-BTB buffer containing 5% Osteocalcin EIA Puf-Liq (Roche diagnostics, Germany), and incubated overnight (20±1 hr) at 4° C. After 5 times wash, 100 μL of goat anti-mouse secondary antibody (115-035-003, Jackson ImmunoResearch) was added and incubated for 1 hr at 20° C. After this step, the plate was washed for 5 times with wash buffer. Finally, 100 μL 3,3′,5,5′-tetramethylbenzidine (TMB) was added to each well and incubated for 15 min at 20° C. in the dark. The colorimetric reaction was stopped by adding 100 μL stopping solution (1% H₂SO₄) and measured at 450 nm with 650 nm as the reference.

[4] = molecular target: T3, truncation of the selection peptide …; assay: as above
Protocol: as §2

[5] = molecular target: B1; assay: as above
Protocol: as §2

Binder	IC50 [1]	binding result [2]	binding result [3]	binding result [4]	binding result [5]
B1	0.0419 µg/mL				
B2		binds	no binding (tested: 1000 ng/mL)	no binding (tested: 1000 ng/mL)	binds
